Laboratory results as given in publication PMC11063326, “2-oxoglutarate-dependent dioxygenases and BAHD acyltransferases drive the structural diversification of orobanchol in Fabaceae plants” (Frontiers in Plant Science, 2024).

Substrate: CC1=C[C@H](O/C=C2/C(=O)O[C@@H]3[C@H]2[C@@H](O)[C@]24CCCC(C)(C)[C@]32O4)OC1=O
Assay: product formation (fabacyl acetate) by LC-MS/MS, crude recombinant enzyme
Format: biochemical, Lathyrus oleraceus
Details: 200 μM acetyl-CoA, 50 mM citrate pH 6.0, 30°C
Source text: product formation (fabacyl acetate) by LC-MS/MS, crude recombinant enzyme on PsFAT (fabacol acetyltransferase, Psat7g079960)

B1: PsFAT (fabacol acetyltransferase, Psat7g079960) (Lathyrus oleraceus) (protein)
chain: MEMEIISREFIKPSSPTPPHLRNFPISFIDHITFRYYVPLLFFYNDTKVSDQKSKISHLKSSLSQILSIYYPFAGRFKDQRSIECNDQGVLFLVANITGIKLSTILENPDEKLFDHLFPDQLQWKLMEWNESILVVQINCFACGGIVISVCTCHKIIDATTAFNFVNDWSKLNREQESESKSTSASLLPYNLLYAGDTIFSLGNLPKFPEVDFAIDKTIVCKRFVFEASKIKLLKNLVNFNSHVVENPTRVEVITALIYKCVVSTLGLNFKTTSLQIAVNLRKRMIPPLSNKCVGNLVWILFVMNPELHDLVFRIRQGLSEFCEVYPKKFGGKEKDSSFICECLKQVTTRVSESDNNQSLIAYASWCKFPMYEADFGWGKPIWVTTSACPARNAVILMDTRDGDGIEVIVSMKKNDMVRFECDVELLQYASVNPSITS
notes: complete CDS from root cDNA, modified pCold III, E. coli BL21(DE3) with GroES/GroEL; crude E. coli extract
Km: 0.287 ± 0.076 µM | Vmax: 0.00745 µM/min
